The nanobody polyreactivity screen of Harvey et al. (2022)

Test: yeast display, Sf9 membrane polyspecificity reagent, FACS + sequencing; frameworks hold sequencing errors
Outline: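 Synthetic nanobody libraries on Saccharomyces cerevisiae BJ5465 were galactose-induced for 36–48 hours, stained 1 hour at 4 °C with 10% biotinylated, detergent-solubilized Sf9 membrane reagent and enriched on streptavidin microbeads. FACS then separated cells into low and high (top ~1%) gates by anti-HA (expression) and streptavidin (reagent binding) fluorescence. Genes were colony-PCR amplified, MiSeq 2 × 250 sequenced and CDR-length filtered. A clone's polyreactivity label is that of its gate of origin.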

Sequence	polyreactivity (PSR sort gate)
QVQLVESGGGLVQAGGSLRLSCAASGSIFYLYAMGWYRQAPGKERELVATISLSSGSTYADSVKGRFTISRDNAKNTVYLQMNSLKPDDTAVYYCAKDLSRWGYNEYDYWGQGTQVTLSS	low polyreactivity
QVQLVESGGGLVQAGGSLRLSCAASGRIFGWYAMGWYRQAPGKEWELVAAITSGSRTSYADSVKGRFTISRDNAKNTDYLQMNSLNPEDTAVYYCARRSYGIYYRSADDSWGQGTQVTGSS	high polyreactivity
QVQLVESGGGLVQAGGSLRLSCASSGRTVGYNAMGWSRQPPGKEREFVAAITWSGGRTYYADSVKGRFTISRDNAKNTVYLLMNSLKPEDTAVYYCAIDGYWDFDYWGQGTQVSVSS	low polyreactivity
QVQLVESGGGLVQAGGSLRLSCAASGFTFWRNAMGWYRQAPGKERELVAAISSGTGRTYYADSVKGRFTISRDNAKNTVYLQMNSLKPEDTAVYYCAKVNGRTSYGTSTRDYWGQGTQVTVSS	low polyreactivity
QVQLVESGGGLVQAGGSLRLSCAASGFTLAYNTMGWYRQAPGKERELVASITSSGTSTYYADSVKGRFTISRDNAKNTVYLQMNSLKPPDTAVYYCAASIWLRYHWGYDYWGQGTQVTVSS	high polyreactivity
QVQLVESGGGLVQAGGSLRLSCAASGITFVSYAMGWYRQAPGKERELVAAISSWSGGTTYYADSVKGRFTISRDNAKNTVYLQMNSLKPEDTAVYYCAAVSFGSYRLGYWGQGTQVTVSS	high polyreactivity
QVHLVESGGGLVQAGGSLRLICAASGISFLAYAMGCYRHAPRKERELVAAISTDGGSTYYADSVKGRFTISRDNAKNTVYLQMNSLKPVYTAVYYCAAKQRYVRTRGMDYWGQGTQVTVSS	high polyreactivity
QVPLVESGGGLVQAGGSLRLSCAASGSICWSYAMGWYRQAPGTERELVASITRSGGSTYYADSVKGRFTISRDYAKNSLYLQLNSLKPEETAVYYCNARRTTRWGSSKYEYDYWGQATQVTVSS	high polyreactivity
QVQLVESGGGLVQEGGSLRLSCAASGLTFLNNAMGWYRPAPGKERELVAAISDGGSTNYADSVKGRFTISRDNAKNTVYLQMNSMKRDDTAVYYCAAVYTSASYGSWGQGTQVTVSS	low polyreactivity
QVQLVESGGGLVQAGGSLRLSCASSGRTFSPYAMGWYRQAPGKERELVAAISSGGGNTYYADSVKGRITISRDNAKNTVYLQMNSLKPVDTAVYYCNAAQRRGGLGYWGLGTQVTVSS	high polyreactivity
KVQLVESGGGLVQAGGSLRLSCAASGFIFYYYAMGGYRQAPGKERELVAVLTESGSSTYYADSVKGRFTISRDNAKNSVYLQMNRLKPEDTAVYYCNADFWPYTGKYDYWGQGTQVTVSS	low polyreactivity
QVQLVESGGGLVQAGGSLRLSCAASGSTFRCYAMGGYRQATGKERELVAAIRSAGSTDYADSVKGRFTISRDNAKITVYLQMNILKQEDTAVYYCAAYFRYRSSRYGYWGQGTQVTVSS	high polyreactivity
QVQLVESGGGLVQAGGSLRLSCAASGRIFLKYTMGLYRQAPGKERELVAAISRGGSTYYADSVKGRFTISRDNAKNTVYLQMNRLKPEDTAVYYCAATSYRRTGYNYWGQGTQVTVSS	high polyreactivity
QDQLVESGGGLDQAGGRLRLSCAASGSIFGVYAMGWYRQAPGKERELVASITWSSGSTNYADSVKGRFTISRDNAKNTVYLQMNSLKPEDTAVYYCNRVYARSQRVVTKFHYDYWGQGTQVTVSS	low polyreactivity
QVQLVESGGGLVQAGGSLRLSCDASGSIFYPYAMGWYRQAPGKERELVASISWSGGSTRYADSVKGRFTISRDHAKNTVYLQMNSLKPEDTAVYYCAARYILSKYGSGVRYYYWGQGTQVTVSS	high polyreactivity
QVQLVESGGGLVQAGGSLRLSCAASGRIFGPNAMGWYRQAPGKERELVAAISWSGSSTRYADSVKGRFTISRDNAKNTVYLQMNSLKPEDTAVYYCAARRQSPDRYTKYEYWGQGTQVTVSS	low polyreactivity

Sequence	polyreactivity (PSR sort gate)
QVQLVESGGGLVQAGGSLRLSCAASGFTLIYYAMGWYRQAPGKERELVAGISRGVSTSYADSVMGRFTISRDNAKNTVYLQMNSLKPEDTAVYYCAAEGSPVDQSSIYDYWGQGTQVTVSS	low polyreactivity
KVQLVESGGGLFQAGGSLGLSCAPSGNTFYHYAMGWYRQSPGKERELVAGIRYNGGSTYYADSVKGRFTISRDNAKNTVYLHMKSLKPEDTAVYYCATIGYTGYAYRYGYWGQGTQVTVSS	high polyreactivity
QVQHVESGGGLVQAGGSLRLSCAASGSIFQKNAMGWYRKAPGKERELVAVITRGGTSTYYADSVKGRFTISRDNAKNTVYLQMNSLKPEDTAVYYCAAKADKRLDYWGQGTQVTVSS	low polyreactivity
KVQLVESGGGLVQAGGSLRLSCAASGITFYDYDMGWYRQEHGKERELVSAITWNGGSTYYADSVKGRFTISRDNAKNTVYLQMNSLKPVDTAVYYCAAESYYIYYYWGQGTQVTVSS	high polyreactivity
QVQLVESGGGLVQAGGSLRLSCAASGSTFYTNPMGWYRQAPGKERELVAAISGSGGSTYYADSVKGRFTISRDNAKNTVYLQMNSLKPEYTAVYYCAARSRYYDTRFDYWGQGTQVTVSS	low polyreactivity
QVQLQERGGGLVQAGGDLRLSCAASGNIFRDYIMGWYRQAPGKEREFVAGIDRGANTNYADSVKGRFTISRDNAKNTVYLQMNSLKPEDTAVYYCAVHTAIVPDFIYWGQGTQVTVSS	low polyreactivity
QVQLVESGGGLVQARGSLRLSCAASGSIIGGNAMGWYRQAPGKERELVATISWSGGSTYYADSVKGRFTISRDKAKNTVYLQMNSLKPEDTAVYYCAKTPYRRYRYGGYTYRTYEYWGQGTQVTVSS	low polyreactivity
QVQLVESGRGLVQAGGSLRLSCAASGRTFWIYAMGWYRQAPGKERELVAAISRGGSTYADSVKGRFTISRDNAKNTVYLQMNSLKPEDTAVYYCAASTPQYQYYYWGQGTQVTVSS	high polyreactivity
QVQLVESGGGLFQAGGSLRLRCAASGFIFGVNAMGWYRQAPGKERELVAAITSTGGRTYYADSVKGRFTISRDNAKNTVYLQMNSLKPVDTAVYFCARYQTGGYGYWGQGTQVTVSS	high polyreactivity
QVQLVESGGGLVQAGGSLRLSCAASGRTFRAYAMGWYRQAPGKERELVAAISYDGTRTYYADSVKGRFTISRDNAKNTVYLQMNSLKPEDTAVYYCNAVWVRGFYRVYDYWGQGTQVTVSS	high polyreactivity
QVQLVESGGGLVQAGGSLRLSCAASGLTSIHYMGWYRQAPGKERELVATITSSTGSTYYADSVKGRFTISRDNAKNTVYLQMNSLKPEDTAVYYCAAESFGADGPYQPSYDYWGQGTQVTVSS	low polyreactivity
QVQLVDSGGGLVQAGGSLRLSCAASGITIEYNDMGWYRQAPGTERELVAAISLSSGSTYYADSVKGRFTISRDNAKNTVYLQMNSLKPEDTAVYYCNADTIIYEGGYWGQGTQVTVSS	low polyreactivity
QVQLVESGGGLVQAGGSLRLSCAASGFTCKYYTMGWYRQAPGKERELVAAISKSGDITYYADSVKGRFTISRDNAKNTVYLQMNSMKPEDTAVYYCAVVPSSTYHAYDYWGQGTQVTVSS	high polyreactivity
QDQHVESGGCLVQAGGSLRLSCAASGFTFYANAMGWYRQAPGKERELVAAISRGVSTTYADSVKGRFTISRDNSKNTVYLQMNSLTPEDTAVYYCAADGKVIAQGYDYWGQGTQVTVST	low polyreactivity
QVQLVESGGGLVQAGGSLRLSCAASGIIFIYYTMGWYRQSPGKERELVAVITTSGDGTYYADSVKGRFTISRDNAKNTVYLQMNSLKPEDTAVYYCAASYSTWVSTRNDYWGQGTQVTVSS	low polyreactivity
QVQLVESGGGLVQAGGSLRLSCAASGFIFDRNAMGWYRQAPGKEREFVAAITRRGGTTYYADSVKGRFTISRDNAKNTVYLQMNSLKPEDTAVYYCAATYLHVYRRRFYYWGQGTQVTVSS	high polyreactivity
